Experimental data taken from article PMC9879991, “Biomolecular condensates formed by designer minimalistic peptides” (Nature Communications, 2023).
No end group written: not given here.

Target: Nterm1 (position 1, -----WGRGRG)
Assay: NMR
Settings: 300 K (general NMR methods statement; not restated for the titration), NaCl 0-0.2 M used in NMR samples, concentration for the pKa titration not given, 20 mM Tris (NMR methods), Free peptide in solution, disordered
Molecule WGRGRGRGWY [WGR-4 designer LLPS peptide (WGR-1 without the ELP motif) (synthetic construct; del10-13)] has a pKa of 7.37 ± 0.01.
With WGRGRGWPGVGY the pKa was 7.51 ± 0.01.
In the case of WGRGRGRGWPGVGY [WGR-1 designer LLPS peptide (synthetic construct)], the pKa is reported as 7.50 ± 0.01.
For WGRGRGRGWPGVGF [WGR-3 designer LLPS peptide (Tyr14 to Phe variant of WGR-1) (synthetic construct; Y14F)], the pKa was 7.49 ± 0.01.

System: not given
Assay: not given
Settings: solution NMR, Trp1-Hα and Trp1-Hβ shifts at pH 6.0, 7.0, 7.5, 8.0, 9.0, Henderson-Hasselbach fit; error by Monte Carlo
With WGRGRGRGWPGVGF [WGR-3] the “pKa of the N-terminal amine group” value was 7.49 ± 0.01.
For WGRGRGRGWY [WGR-4], the “pKa of the N-terminal amine group” value was 7.37 ± 0.01.
With WGRGRGWPGVGY [WGR-5] the “pKa of the N-terminal amine group” value was 7.51 ± 0.01.
